The target of test [1] is T1, human gp130-his (human, UniProt P40189 23-619).
T1 construct: gp130 (interleukin-6 receptor subunit beta), human; source: bought: Sino Biological
T1 sequence (looked up): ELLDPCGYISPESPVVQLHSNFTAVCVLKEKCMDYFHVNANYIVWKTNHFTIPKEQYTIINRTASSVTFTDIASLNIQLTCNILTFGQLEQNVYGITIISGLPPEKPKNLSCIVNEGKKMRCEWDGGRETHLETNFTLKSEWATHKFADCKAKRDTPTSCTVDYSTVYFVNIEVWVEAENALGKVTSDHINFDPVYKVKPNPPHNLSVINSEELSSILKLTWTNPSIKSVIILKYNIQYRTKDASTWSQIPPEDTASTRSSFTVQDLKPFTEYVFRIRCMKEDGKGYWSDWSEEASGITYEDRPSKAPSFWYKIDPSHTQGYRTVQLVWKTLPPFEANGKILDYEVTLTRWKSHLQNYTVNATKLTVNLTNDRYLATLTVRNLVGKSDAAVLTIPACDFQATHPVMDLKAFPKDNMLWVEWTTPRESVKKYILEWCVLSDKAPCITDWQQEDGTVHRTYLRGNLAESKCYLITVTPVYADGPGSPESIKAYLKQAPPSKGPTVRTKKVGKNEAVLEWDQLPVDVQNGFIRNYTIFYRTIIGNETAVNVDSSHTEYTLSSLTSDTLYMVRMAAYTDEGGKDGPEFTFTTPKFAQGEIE
Kind of test: SPR; Biacore 8K, CM5 chip with anti-mouse IgG, 1G11 captured; 200 nM hLIF flowed, followed by 500 nM LIFR-his or gp130-his; 25 C, pH 7.4, 10 mM HEPES, 150 mM NaCl, 3 mM EDTA, 0.05% Tween-20. The conditions noted are these: both partners purified. (SPR reads the build-up and loss of mass on a sensor chip optically.)

Test [2] addresses T1, human gp130-his. The test can be described thus: ELISA; receptor competitive ELISA: wells coated with LIFR-his or gp130-his (100 ng/well); hLIF-hFc (50 ng) pre-mixed with recombinant antibody at 4 C for 1 h, then 37 C for 1 h on the plate; detected with HRP goat anti-human IgG. The conditions noted are these: both partners purified. In general terms: An ELISA detects its analyte on a solid surface through an enzyme-linked reagent.

B1: human LIF (ligand)
chain: not shown
notes: also called hLIF; source: bought: Genscript
B1: the binding result in test [1] is reported as “binds”.

B2: human LIF with human IgG1-Fc tag (Fc fusion)
chain: not shown
notes: also called hLIF-hFc; LIF-hFc
Regarding B2, in test [2], the binding result is on record as “binds”.

For the origin of these results see PMC11340043, “Antagonist anti-LIF antibody derived from naive human scFv phage library inhibited tumor growth in mice” (BMC Immunology, 2024).
